# T1: MBP-OsRFL (Oryza sativa L., UniProt Q0JAI1 1-389)
# T1 sequence: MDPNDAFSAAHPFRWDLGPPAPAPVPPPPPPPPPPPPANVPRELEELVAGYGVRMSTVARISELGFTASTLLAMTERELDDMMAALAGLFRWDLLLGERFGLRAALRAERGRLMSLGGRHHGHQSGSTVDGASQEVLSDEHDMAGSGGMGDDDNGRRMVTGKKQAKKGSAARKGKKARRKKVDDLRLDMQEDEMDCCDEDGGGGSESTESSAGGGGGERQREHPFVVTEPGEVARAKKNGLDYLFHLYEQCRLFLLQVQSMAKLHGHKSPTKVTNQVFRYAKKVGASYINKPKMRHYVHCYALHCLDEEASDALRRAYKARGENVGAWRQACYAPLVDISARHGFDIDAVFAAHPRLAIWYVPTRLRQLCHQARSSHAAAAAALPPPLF
# B1: OsRFL promoter NRE probe (EMSA/OsRFL-3) (dsDNA)
# DNA 1: TAATACTGTTGTTTGATACTAATGAGTCAAGTTG
# DNA 2: CAACTTGACTCATTAGTATCAAACAACAGTATTA
# B2: OsMOC1 promoter probe (EMSA/OsMOC1) (dsDNA)
# DNA 1: TGGTGTTACCACTGGCTTGATCA
# DNA 2: TGATCAAGCCAGTGGTAACACCA
# Key:
# [1] = biological target: MBP-OsNLP3 (Oryza sativa L., UniProt Q5NB82 1-938); assay: EMSA
# MBP-OsNLP3, sequence (Q5NB82 whole entry): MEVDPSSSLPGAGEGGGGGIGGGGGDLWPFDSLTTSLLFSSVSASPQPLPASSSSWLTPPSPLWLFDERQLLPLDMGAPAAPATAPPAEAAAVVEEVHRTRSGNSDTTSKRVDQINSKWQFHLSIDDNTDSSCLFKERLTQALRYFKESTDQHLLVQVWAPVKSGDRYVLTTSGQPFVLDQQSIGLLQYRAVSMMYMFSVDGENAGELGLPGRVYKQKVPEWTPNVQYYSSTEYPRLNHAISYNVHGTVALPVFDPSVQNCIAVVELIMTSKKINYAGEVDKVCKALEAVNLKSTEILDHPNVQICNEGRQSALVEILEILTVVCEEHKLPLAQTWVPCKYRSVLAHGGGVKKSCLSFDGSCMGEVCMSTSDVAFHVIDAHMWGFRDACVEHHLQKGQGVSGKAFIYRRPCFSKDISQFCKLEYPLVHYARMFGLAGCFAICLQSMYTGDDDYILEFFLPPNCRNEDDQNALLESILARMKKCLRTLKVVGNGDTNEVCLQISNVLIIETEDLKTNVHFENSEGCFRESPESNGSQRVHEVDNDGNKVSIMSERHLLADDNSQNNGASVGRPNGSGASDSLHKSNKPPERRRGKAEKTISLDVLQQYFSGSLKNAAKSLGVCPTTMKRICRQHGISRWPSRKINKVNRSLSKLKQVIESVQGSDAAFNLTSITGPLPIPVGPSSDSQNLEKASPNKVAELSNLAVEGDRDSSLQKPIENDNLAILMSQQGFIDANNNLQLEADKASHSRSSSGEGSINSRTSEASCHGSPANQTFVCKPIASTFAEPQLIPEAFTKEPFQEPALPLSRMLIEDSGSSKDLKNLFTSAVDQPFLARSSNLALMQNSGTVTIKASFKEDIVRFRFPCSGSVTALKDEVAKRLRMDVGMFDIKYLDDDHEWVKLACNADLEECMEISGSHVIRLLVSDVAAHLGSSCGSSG
# [2] = biological target: T1, MBP-OsRFL; assay: EMSA
Binder,binding result [1],binding result [2]
B1,binds,–
B2,–,binds

# From paper doi:10.1101/2023.02.28.530553
